Laboratory results: doi:10.1101/2025.08.20.671286

Molecular target: apoptosis-inducing factor, mitochondrial (AIFM1) (human) (UniProt O95831)
Test: cross-linking

## apoptosis-inducing factor, mitochondrial (AIFM1) (from UniProt O95831 103-613) (natural protein)
  stoichiometry N: 2
